Assay results taken from article PMC3276697 (Traffic (Copenhagen, Denmark), 2012).

Target: T1, Vps4(E233Q), the ATP-locked form of Vps4 (S. cerevisiae, UniProt P52917 1-437, E233Q)
T1 sequence (looked up): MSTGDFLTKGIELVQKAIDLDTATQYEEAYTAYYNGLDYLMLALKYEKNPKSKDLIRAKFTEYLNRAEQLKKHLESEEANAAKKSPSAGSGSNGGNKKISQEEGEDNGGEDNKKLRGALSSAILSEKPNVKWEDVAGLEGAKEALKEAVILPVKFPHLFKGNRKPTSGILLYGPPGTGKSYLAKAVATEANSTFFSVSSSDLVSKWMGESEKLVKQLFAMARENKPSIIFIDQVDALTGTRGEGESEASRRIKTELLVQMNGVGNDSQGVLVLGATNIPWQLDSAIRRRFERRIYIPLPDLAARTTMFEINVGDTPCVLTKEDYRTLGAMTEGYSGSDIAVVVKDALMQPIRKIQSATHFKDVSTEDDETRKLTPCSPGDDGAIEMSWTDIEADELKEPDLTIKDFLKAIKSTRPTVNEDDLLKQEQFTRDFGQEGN
Test: pull-down

binding result: binds
B1: GST-Did2(CT) (amino acids 113-204), the C-terminal half of Did2 (domain or fragment, S. cerevisiae, UniProt P69771 113-204, looked up)
chain: QQITMIMDKFEQQFEDLDTSVNVYEDMGVNSDAMLVDNDKVDELMSKVADENGMELKQSAKLDNVPEIKAKEVNVDDEKEDKLAQRLRALRG
